In the data set the test system is LSD1Δ1 (KDM1);CoRESTΔ1 (human;human). The data set is described as follows: HI-FI fluorescence quenching. The following applies: 20 mM Tris-HCl pH 7.6, 50 mM NaCl, 5 mM DTT, 5% glycerol, 0.01% NP40, 0.01% CHAPS, 100 ug/ml BSA, 2 mM EDTA, room temperature, 15 min.

The term Kd denotes the equilibrium constant for the complex coming apart. A higher Kd goes with lower affinity. As for 147 bp nucleosome 1N1, H3 A21C, the dissociation constant Kd was 0.081 µM. With 147 bp nucleosome 1N1, H3 K27C the figure was 1.64 µM. With 151 bp nucleosome 3N3, H3 K27C the figure was 0.716 µM; with 151L nucleosome 5N1, H3 K27C, 0.718 µM. With 155 bp nucleosome 5N5, H3 K27C, the Kd is 0.419 µM. In the case of 157 bp nucleosome 6N6, H3 A21C it was 0.0176 µM; in that of 157 bp nucleosome 6N6, H3 K27C, 0.47 µM. With 159 bp nucleosome 7N7, H3 K27C the figure was 0.236 µM; with 161 bp nucleosome 8N8, H3 K27C, 0.232 µM; with 161L nucleosome 15N1, H3 K27C, 0.406 µM. With 163 bp nucleosome 9N9, H3 K27C the figure was 0.237 µM; with 165 bp nucleosome 10N10, H3 K27C, 0.205 µM. 169 bp nucleosome 12N12, H3 K27C returned a Kd of 0.282 µM. As for 177 bp nucleosome 16N16, H3 K27C, the dissociation constant (Kd) amounted to 0.214 µM.

Turning to 177L nucleosome 31N1, H3 K27C, the equilibrium dissociation constant (Kd) stood at 0.769 µM. 181 bp nucleosome 18N18, H3 A21C gave a Kd of 0.0038 µM. For 181 bp nucleosome 18N18, H3 K27C, the Kd was found to be 0.1 µM. Compared with the last substance, the Kd is about 26-fold higher. Substance 185 bp nucleosome 20N20, H3 K27C showed a Kd of 0.135 µM. In the case of 207 bp nucleosome 31N31, H3 A21C it was 0.003 µM. Take 207 bp nucleosome 31N31, H3 K27C: the Kd was 0.263 µM.

The record behind these values is article PMC4446439.
